Here are results for one protein from publication PMC11238716 (ACS Medicinal Chemistry Letters, 2024).

The series deals with the molecule itself. Nature of the series: SEC.

B1: 6 × HisMBP-SREBP-1a (1–198) (domain or fragment, human, UniProt P36956-1 1-198, looked up)
chain: MDEPPFSEAALEQALGEPCDLDAALLTDIEDMLQLINNQDSDFPGLFDPPYAGSGAGGTDPASPDTSSPGSLSPPPATLSSSLEAFLSGPQAAPSPLSPPQPAPTPLKMYPSMPAFSPGPGIKEESVPLSILQTPTPQPLPGALLPQSFPAPAPPQFSSTPVLGYPSPPGGFSTGSPPGNTQQPLPGLPLASPPGVPP
Regarding B1, the binding result was “binds”.
